Results taken from article PMC8629394, “Anaerobic peroxisomes in Entamoeba histolytica metabolize myo-inositol” (PLoS Pathogens, 2021).
Several values for one entry are separate records, joined by “and”; a condition that tells them apart may be missing. Identical values can stand only once.

Columns and labels:
purified protein [1] = substrate: NC(=O)C1=CN([C@@H]2O[C@H](COP(=O)(O)OP(=O)(O)OC[C@H]3O[C@@H](n4cnc5c(N)ncnc54)[C@H](O)[C@@H]3O)[C@@H](O)[C@H]2O)C=CC1; test: purified protein; format: biochemical, Entamoeba histolytica; conditions: reverse reaction, keto-2-inositol as presumed co-substrate (concentration not stated); varied: cofactor
purified protein [2] = substrate: NC(=O)c1ccc[n+]([C@@H]2O[C@H](COP(=O)(O)OP(=O)(O)OC[C@H]3O[C@@H](n4cnc5c(N)ncnc54)[C@H](O)[C@@H]3O)[C@@H](O)[C@H]2O)c1; test: purified protein; format: biochemical, Entamoeba histolytica; conditions: 12.5 mM myo-inositol, 10 mM sodium pyrophosphate pH 9, room temperature; pH 9.0; varied: cofactor
purified protein [3] = substrate: NC(=O)c1ccc[n+]([C@@H]2O[C@H](COP(=O)(O)OP(=O)(O)OC[C@H]3O[C@@H](n4cnc5c(N)ncnc54)[C@H](OP(=O)(O)O)[C@@H]3O)[C@@H](O)[C@H]2O)c1; test: purified protein; format: biochemical, Entamoeba histolytica; conditions: 12.5 mM myo-inositol, 10 mM sodium pyrophosphate pH 9, room temperature; pH 9.0; varied: cofactor
purified protein [4] = substrate: O=C1[C@@H](O)[C@H](O)[C@@H](O)[C@H](O)[C@H]1O; test: purified protein; format: biochemical, Entamoeba histolytica; conditions: reverse reaction, NADH as co-substrate (concentration not stated)
purified protein [5] = substrate: O[C@H]1[C@H](O)[C@@H](O)[C@H](O)[C@@H](O)[C@@H]1O; test: purified protein; format: biochemical, Entamoeba histolytica; conditions: 1 mM NAD+, 10 mM sodium pyrophosphate pH 9, room temperature; pH 9.0
purified protein [6] = substrate: O[C@H]1[C@H](O)[C@@H](O)[C@H](O)[C@@H](O)[C@H]1O; test: purified protein; format: biochemical, Entamoeba histolytica; conditions: 1 mM NAD+, 10 mM sodium pyrophosphate pH 9, room temperature; pH 9.0
[7] = target: the molecule itself; test: SEC-MALS; enzymatically active myo-IDH, 0.5-2 mg/ml, Agilent Biosec-3 column, 0.3 ml/min, 50 mM phosphate buffer pH 7.0, 300 mM NaCl, 15°C; miniDAWN light scattering, refractive index and UV detectors

B1: recombinant 6xHis-tagged E. histolytica myo-inositol dehydrogenase (myo-IDH) (enzyme, Entamoeba histolytica, UniProt C4LVW1 1-316, looked up)
chain: MQSNKVRICLCGTGRLGSFRASLFIESQDIELVGVVEPFRVCQSVLDRPNIKIFKTVEEINIPIDGIWISTPTKFHLQTIKLASKKVKHIYCEKPIASTPEEVKEAYETCRKNGVSLHCGWMRRRDPGYQSIKEYLVSHNVSIQRAEFHSFDWPLVPPEFLKTLGNIFTDLMCHDFNLIMYYMNNTLPKYVTAVGIDGGAGVWDSATASLEYPNNVVLTIIATRNGNKVYDNSLTVLTSDSHILECGKEPENLTETFMKRHEKNFKKELPFFANIIRNNGTSGDVLSCVNTSILIQAATRSATLGGKRIPLVIPKL
notes: myo-inositol dehydrogenase (myo-IDH, EC 1.1.1.18) of Entamoeba histolytica, gene EHI_125740; theoretical weight 36.4 kDa including the 6x-His tag; the natural protein ends in a PTS1 tripeptide; also called putative inositol dehydrogenase; EHI_125740; source: E. coli BL21 Rosetta, pET42b, purified (Ni-NTA agarose, native conditions, imidazole)
Km (purified protein [1]): 9 ± 0 µM
Vmax (purified protein [1]): 1.64 µmol/min/mg
Km (purified protein [2]): 38 ± 4 µM
Vmax (purified protein [2]): 1 µmol/min/mg
Km (purified protein [3]): 1201 ± 532 µM
Vmax (purified protein [3]): 0.826 µmol/min/mg
Km (purified protein [4]): 322 ± 34 µM
Vmax (purified protein [4]): 4.41 µmol/min/mg
Km (purified protein [5]): 229 ± 20 µM
Vmax (purified protein [5]): 6.2 µmol/min/mg
Km (purified protein [6]): 44 ± 4 µM
Vmax (purified protein [6]): 5.45 µmol/min/mg
stoichiometry N [7]: 2 and 3
